{"source": "patent US20230265123A1", "about": "“PEPTIDES AND FORMULATIONS FOR CANCER TREATMENT” (Peptinovo Biopharma, Inc., priority 2020, published 2023)", "target": "T1, human SR-BI (Homo sapiens, UniProt Q8WTV0)", "T1 construct": "expressed in transfected cells; host or cells: BHK(SR-BI) cells obtained from the NIH, GeneSwitch System (Invitrogen), induced with 10 nM mifepristone", "T1 sequence (Q8WTV0 1-509 isoform Q8WTV0-2)": "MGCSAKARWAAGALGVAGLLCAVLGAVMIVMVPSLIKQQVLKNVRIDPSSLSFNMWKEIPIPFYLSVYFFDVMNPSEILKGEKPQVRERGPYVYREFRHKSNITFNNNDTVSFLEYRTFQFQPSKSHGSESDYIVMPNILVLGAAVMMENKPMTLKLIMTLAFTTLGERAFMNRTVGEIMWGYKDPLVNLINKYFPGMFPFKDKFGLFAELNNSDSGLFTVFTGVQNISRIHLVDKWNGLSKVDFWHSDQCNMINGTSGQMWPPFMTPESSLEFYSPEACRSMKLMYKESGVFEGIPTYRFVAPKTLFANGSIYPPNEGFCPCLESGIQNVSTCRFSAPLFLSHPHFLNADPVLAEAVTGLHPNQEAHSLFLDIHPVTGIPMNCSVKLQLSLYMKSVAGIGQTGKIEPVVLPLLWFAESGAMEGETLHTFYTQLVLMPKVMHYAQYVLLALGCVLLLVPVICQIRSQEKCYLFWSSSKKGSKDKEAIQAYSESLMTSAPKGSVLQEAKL", "assay": "DiI uptake from DiI-labeled PALM by BHK(SR-BI) cells, uninduced or mifepristone-induced (SR-BI selectivity)", "assay_type": "cell-based", "conditions": "for Induced Uptake: BHK(SR-BI) cells induced with 10 nM mifepristone; for Induced Uptake / Basal Uptake: DiI-labeled PALM 32 μg peptide/ml or DiI-labeled HDL 19 μg protein/ml, 4 hours, ± SEM (n = 4); for SR-BI Dependent Uptake: Increase over basal uptake; for Basal Uptake: uninduced BHK(SR-BI) cells", "protocol": "The procedure essentially followed that described in Example 5. A 40 μl aliquot of 10 mM or peptide was combined with 56 μl of 20 mM POPC, 24 μl 20 mM SM(egg) and 16 μl 2.5 mM DiI in a small glass vial. The peptide and lipid stock solutions were prepared in 80% TBA/20% water. The DiI stock was prepared in 92% TBA/8% water. The solution was lyophilized, and the resultant cake was rehydrated by addition of 0.2 ml of Dulbeco's phosphate buffered saline. The solution was briefly swirled, water bath sonicated (for approx. 15 sec.) and placed in a 50° C. heating block for 20 minutes.\nSR-BI interaction studies are done with BHK(SR-BI) cells obtained from the NIH. The cells were stably transfected with an inducible human SR-BI gene by means of the GeneSwitch™ System (Invitrogen). The cells were plated (96-well plate) (8000 cells/well) in growth medium (Dulbeco's modified Eagle medium containing 10% fetal bovine serum) containing 200 ug/ml each of zeocin and hygromycin. After 24 hours incubation, the growth medium was removed and replaced with 0.2% bovine serum albumin in Dulbeco's modified Eagle medium. The medium of cells to be induced for SR-BI expression also contained 10 nM mifepristone, added from a DMSO stock solution. DMSO alone was added to the medium of uninduced cells. The induction medium was removed after 24 hours incubation and replaced with medium containing DiI-labeled PALM (32 μg peptide/ml) or DiI-labeled HDL (19 μg protein/ml) (Kalen Biomedical, Montgomery Village, Md.). The test media were prepared by diluting an aliquot of Di-I-labeled PALM (Example 6) or the DiI-labeled HDL in 0.2% bovine serum albumin in Dulbeco's modified Eagle medium. The solutions were passed through 0.2 μm pore size, polyethersulfone, sterilization filters before use. The cells were incubated in test media for 4 hours. Next, the cells were washed 3 times with 0.1% albumin in Dulbeco's phosphate buffered saline (with calcium and magnesium). The last wash was replaced with 200 ul/well of t-butanol/water (95%/5%). The covered plate was left to stand at room temperature for 30 min with occasional shaking. The fluorescence in each well was detected at 520 nm excitation and 580 nm emission with a 550 nm cutoff filter on a […] Gemini fluorescence plate reader, the results are shown in Table 6 and FIG. 7.", "note": "Square brackets hold non-standard residues; d marks the D form. Ends that are not written are not given here. Aib = CC(C)(N)C(=O)O", "data": [{"substance": "DVFQKLVELFNQLLEKWKQV [SEQ ID NO: 2, amphiphilic peptide used to form PALM]", "values": [{"measurement": "Induced Uptake", "value": "12 ± 2 (DiI in cells)/(Total DiI added) × 10^−3"}, {"measurement": "SR-BI Dependent Uptake", "value": 35, "unit": "%"}, {"measurement": "Basal Uptake", "value": "9 ± 2 (DiI in cells)/(Total DiI added) × 10^−3"}]}, {"substance": "DVFQKL{Aib}ELFKELLEKWKQV (DVFQKL[Aib]ELFKELLEKWKQV) [SEQ ID NO: 8, amphiphilic peptide used to form PALM]", "values": [{"measurement": "Induced Uptake", "value": "20 ± 9 (DiI in cells)/(Total DiI added) × 10^−3"}, {"measurement": "SR-BI Dependent Uptake", "value": 14, "unit": "%"}, {"measurement": "Basal Uptake", "value": "17 ± 8 (DiI in cells)/(Total DiI added) × 10^−3"}]}, {"substance": "DVFQKL{Aib}ELFNQLLEKWKQV (DVFQKL[Aib]ELFNQLLEKWKQV) [SEQ ID NO: 1, amphiphilic alpha-helical peptide used to form PALM]", "values": [{"measurement": "Induced Uptake", "value": "10 ± 1 (DiI in cells)/(Total DiI added) × 10^−3"}, {"measurement": "SR-BI Dependent Uptake", "value": 53, "unit": "%"}, {"measurement": "Basal Uptake", "value": "6 ± 1 (DiI in cells)/(Total DiI added) × 10^−3"}]}, {"substance": "DVFQKL{Aib}ELFNQL{Aib}EKFKQV (DVFQKL[Aib]ELFNQL[Aib]EKFKQV) [SEQ ID NO: 6, amphiphilic peptide used to form PALM]", "values": [{"measurement": "Induced Uptake", "value": "27 ± 3 (DiI in cells)/(Total DiI added) × 10^−3"}, {"measurement": "SR-BI Dependent Uptake", "value": 82, "unit": "%"}, {"measurement": "Basal Uptake", "value": "15 ± 1 (DiI in cells)/(Total DiI added) × 10^−3"}]}, {"substance": "DVFQKL{Aib}ELFNQL{Aib}EKWKQV (DVFQKL[Aib]ELFNQL[Aib]EKWKQV) [SEQ ID NO: 5, amphiphilic peptide used to form PALM]", "values": [{"measurement": "Induced Uptake", "value": "16 ± 2 (DiI in cells)/(Total DiI added) × 10^−3"}, {"measurement": "SR-BI Dependent Uptake", "value": 104, "unit": "%"}, {"measurement": "Basal Uptake", "value": "8 ± 1 (DiI in cells)/(Total DiI added) × 10^−3"}]}, {"substance": "DVFQKL{Aib}ELFQNL{Aib}EKWKQV (DVFQKL[Aib]ELFQNL[Aib]EKWKQV) [SEQ ID NO: 10, amphiphilic peptide used to form PALM]", "values": [{"measurement": "Induced Uptake", "value": "16 ± 2 (DiI in cells)/(Total DiI added) × 10^−3"}, {"measurement": "SR-BI Dependent Uptake", "value": 78, "unit": "%"}, {"measurement": "Basal Uptake", "value": "9 ± 1 (DiI in cells)/(Total DiI added) × 10^−3"}]}, {"substance": "DVFQKL{Aib}ELFQQL{Aib}EKWKQV (DVFQKL[Aib]ELFQQL[Aib]EKWKQV) [SEQ ID NO: 9, amphiphilic peptide used to form PALM]", "values": [{"measurement": "Induced Uptake", "value": "11 ± 2 (DiI in cells)/(Total DiI added) × 10^−3"}, {"measurement": "SR-BI Dependent Uptake", "value": 72, "unit": "%"}, {"measurement": "Basal Uptake", "value": "6 ± 1 (DiI in cells)/(Total DiI added) × 10^−3"}]}, {"substance": "DV{Aib}QKFLELFNQLLEKWKQV (DV[Aib]QKFLELFNQLLEKWKQV) [SEQ ID NO: 4, amphiphilic peptide used to form PALM]", "values": [{"measurement": "Induced Uptake", "value": "10 ± 1 (DiI in cells)/(Total DiI added) × 10^−3"}, {"measurement": "SR-BI Dependent Uptake", "value": 66, "unit": "%"}, {"measurement": "Basal Uptake", "value": "6 ± 1 (DiI in cells)/(Total DiI added) × 10^−3"}]}, {"substance": "DV{Aib}QKLFELFNQLLEKWKQV (DV[Aib]QKLFELFNQLLEKWKQV) [SEQ ID NO: 3, amphiphilic peptide used to form PALM]", "values": [{"measurement": "Induced Uptake", "value": "11 ± 2 (DiI in cells)/(Total DiI added) × 10^−3"}, {"measurement": "SR-BI Dependent Uptake", "value": 79, "unit": "%"}, {"measurement": "Basal Uptake", "value": "6 ± 1 (DiI in cells)/(Total DiI added) × 10^−3"}]}, {"substance": "D{Aib}FQKL{Aib}ELFNQL{Aib}EKWKQV (D[Aib]FQKL[Aib]ELFNQL[Aib]EKWKQV) [SEQ ID NO: 7, amphiphilic peptide used to form PALM]", "values": [{"measurement": "Induced Uptake", "value": "18 ± 2 (DiI in cells)/(Total DiI added) × 10^−3"}, {"measurement": "SR-BI Dependent Uptake", "value": 137, "unit": "%"}, {"measurement": "Basal Uptake", "value": "8 ± 1 (DiI in cells)/(Total DiI added) × 10^−3"}]}, {"substance": "PVLDLFRELLNELLEALKQKLK [SEQ ID NO: 11, reference compound]", "values": [{"measurement": "Induced Uptake", "value": "5 ± 1 (DiI in cells)/(Total DiI added) × 10^−3"}, {"measurement": "SR-BI Dependent Uptake", "value": 55, "unit": "%"}, {"measurement": "Basal Uptake", "value": "3 ± 1 (DiI in cells)/(Total DiI added) × 10^−3"}]}]}
